Data published in publication PMC3618048, “A Novel Alkaliphilic Bacillus Esterase Belongs to the 13th Bacterial Lipolytic Enzyme Family” (PLoS ONE, 2013).

Tests used:
[1] = target: esterase EstOF4 from Bacillus pseudofirmus OF4 (Bacillus pseudofirmus OF4); assay: SEC; Superdex200 10/30 column calibrated with cytochrome C, carbonic anhydrase, bovine serum albumin and alcohol dehydrogenase; native molecular weight of purified EstOF4
[2] = substrate: CC(=O)Oc1ccc([N+](=O)[O-])cc1; assay: purified protein; assay type: biochemical, Alkalihalophilus pseudofirmus; conditions: 50 mM Tris-HCl pH 8.5, 50 °C
[3] = substrate: CCC(=O)Oc1ccc([N+](=O)[O-])cc1; assay: purified protein; assay type: biochemical, Alkalihalophilus pseudofirmus; conditions: 50 mM Tris-HCl pH 8.5, 50 °C
[4] = substrate: CCCC(=O)Oc1ccc([N+](=O)[O-])cc1; assay: purified protein; assay type: biochemical, Alkalihalophilus pseudofirmus; conditions: 50 mM Tris-HCl pH 8.5, 50 °C
[5] = substrate: CCCCCC(=O)Oc1ccc([N+](=O)[O-])cc1; assay: purified protein; assay type: biochemical, Alkalihalophilus pseudofirmus; conditions: 50 mM Tris-HCl pH 8.5, 50 °C
[6] = substrate: CCCCCCCC(=O)Oc1ccc([N+](=O)[O-])cc1; assay: purified protein; assay type: biochemical, Alkalihalophilus pseudofirmus; conditions: 50 mM Tris-HCl pH 8.5, 50 °C
[7] = substrate: CCCCCCCCCC(=O)Oc1ccc([N+](=O)[O-])cc1; assay: purified protein; assay type: biochemical, Alkalihalophilus pseudofirmus; conditions: 50 mM Tris-HCl pH 8.5, 50 °C
[8] = substrate: CCCCCCCCCCCC(=O)Oc1ccc([N+](=O)[O-])cc1; assay: purified protein; assay type: biochemical, Alkalihalophilus pseudofirmus; conditions: 50 mM Tris-HCl pH 8.5, 50 °C

For “esterase EstOF4 from Bacillus pseudofirmus OF4 (enzyme)”, the stoichiometry N [1] was 2.

B1: EstOF4 (Alkalihalophilus pseudofirmus OF4) (protein)
chain: MKVVAPKPFTFEGGDRAVLLLHGFTGTTADVRMIGRHLQKEGYTCHAPLYKGHGVPPEELVHTGPEDWWKDVEAGYNYLKEKGHEEIAVCGLSLGGVFSLKIGYTLPVKGIVPMCAPVRPKTEDAMYKGVLAYAREYKKREQKSDDVINQEMEAFKPMGTLSALGELIQDVHNHLDHIYSPTFVVQARNDEMIDVESANIIHDQIESDEKSLKWYEESGHVITLDKEKEQLHEDILQFLEGLDWTV
notes: full-length ORF (246 aa, 741 bp, no signal peptide), pET-28a NdeI/BamHI, N-terminal His tag, E. coli BL21(DE3); about 35 kDa SDS-PAGE, 64 kDa native dimer
With B1 the Km [2] was 37 ± 6 µM, the kcat [2] was 2.07 ± 0.0667 s⁻¹ and the kcat/Km [2] was 56700 M⁻¹ s⁻¹. It also gave a Km [3] of 94 ± 9 µM, a kcat [3] of 3.52 ± 0.0667 s⁻¹ and a kcat/Km [3] of 38300 M⁻¹ s⁻¹. The Km [4] was 90 ± 9 µM, the kcat [4] was 3.65 ± 0.0667 s⁻¹ and the kcat/Km [4] was 40000 M⁻¹ s⁻¹. The Km [5] was 60 ± 6 µM, the kcat [5] was 5.48 ± 0.1 s⁻¹ and the kcat/Km [5] was 91700 M⁻¹ s⁻¹. It also gave a Km [6] of 102 ± 3 µM, a kcat [6] of 1.75 ± 0.0333 s⁻¹ and a kcat/Km [6] of 16700 M⁻¹ s⁻¹. It also gave a Km [7] of 173 ± 8 µM, a kcat [7] of 1.17 ± 0.0667 s⁻¹ and a kcat/Km [7] of 6670 M⁻¹ s⁻¹. For the same molecule, the Km [8] was 42 ± 5 µM, the kcat [8] was 0.1 ± 0.0167 s⁻¹ and the kcat/Km [8] was 1670 M⁻¹ s⁻¹.
